Assay results: US20090325259A1, “USE OF ADHESION MOLECULES AS BOND STRESS-ENHANCED NANOSCALE BINDING SWITCHES” (priority 2002, published 2009)

Assays:
[1] = tested on: guinea pig red blood cells (RBCs); assay: Parallel plate flow chamber, RBCs on carpet of FimH-expressing E. coli; type: cell-based; conditions: low shear, 0.01 to 0.14 dynes/cm^2
Protocol: Bacteria-coated dishes were prepared as follows: 35 mm tissue culture dishes were incubated with 20 μg/ml RNAse B in 0.02 M bicarbonate buffer for 1 hr at 37° C. and washed three times in PBS with 0.1% BSA (PBS-BSA). The dishes were then incubated with 200 μl PBS-BSA containing 108 colony-forming units of E. coli for 1 hr at 37° C. and washed three times. […] The dishes were then placed under a Glycotech parallel plate flow chamber with a size B gasket (2.5 cm×0.25 cm×250 μm) and sealed with vacuum. A Harvard model #975 pulse-free syringe pump was used to pump fluid through the chamber. […]
RBC movement was recorded using phase contrast microscopy with a 20× objective, a CCD camera, and Metamorph video imaging software by Universal Imaging. Videos were recorded at 1 frame every 2 s for a total of 3 min at each shear rate. […] The average velocity for each cell was calculated from these positions over the 3 min at each shear. […] We only analyzed cells that were attached and in the field of view at the start of the 3 min time frame. The off-rate of RBCs was calculated from the X, the percent of original RBCs remaining bound at time t, using the formula k=1/t·ln(1/X), and using t=3 min. […]

[2] = tested on: guinea pig red blood cells (RBCs); assay: RBC rosette-formation assay (static agglutination); type: cell-based; conditions: static rosette-formation assay
Protocol: (§1) Assays of bacterial adhesion to Man1-BSA and bovine RNAseB immobilized in 96-well plates were carried out as described previously (Sokurenko et al., 1995). Briefly, Man1-BSA and bovine RNAseB were dissolved at 20 μg/ml in 0.02 M bicarbonate buffer, and 100 μl aliquots were incubated in microtiter wells for 1 hr at 37° C. The wells were then washed three times with PBS and quenched with 0.1% BSA in PBS. 3H-thymidine-labeled bacteria were added in 0.1% BSA in PBS and incubated for 40 min at 37° C. without shaking to achieve saturation, and the wells were then washed with PBS. The individual wells were subjected to scintillation counting. The density of bacteria used in all assays was 5×10^7 colony forming units per 100 μl. RBC rosette-formation assay was performed by mixing equal amounts of serially diluted bacterial suspensions (starting from OD540 nm=1.0) and a 1% suspension of RBC in U-bottom microtiter plate wells. On-slide agglutination assays were performed by mixing the suspension of RBC and bacteria on a slide surface followed by rocking at ˜3 s^−1.
Two commonly used RBC agglutination assays were performed that utilize different shear conditions. […] If no agglutination occurs, RBCs fall into a pellet in the bottom of the well (FIG. 15A), while agglutination results in a rosette of RBCs crosslinked by bacteria. […]

[3] = tested on: bovine RNAse B (trimannose); assay: Bacterial adhesion to bovine RNAse B-coated microplate (trimannose), static; type: binding; conditions: mutations in FimH-j96 and FimH-f18
Protocol: as §1

B1: FimH-j96-Q32L:S124A: FimH-j96 with combined Q32L and S124A mutations in the loop regions near the linker chain (protein)
chain: FACKTANGTAIPIGGGSANVYVNLAPAVNVGLNLVVDLSTQIFCHNDYPETITDYVTLQRGSAYGGVLSSFSGTVKYNGSSYPFPTTSETPRVVYNSRTDKPWPVALYLTPVSSAGGVAIKAGALIAVLILRQTNNYNSDDFQFVWNIYANNDVVVPTGGCDVSARDVTVTLPDYPGSVPIPLTVYCAKSQNLGYYLSGTTADAGNSIFTNTASFSPAQGVGVQLTRNGTIIPANNTVSLGAVGTSAVSLGLTANYARTGGQVTAGNVQSIIGVTFVYQ
Adhesion of RBCs to bacterial carpet under low shear [1]: moved much more under low shear stress than those on FimH-j96

B2: FimH-f18-V156P: FimH-f18 with the V156P point mutation in the linker chain (protein)
chain: FACKTANGTAIPIGGGSANVYVNLAPAVNVGQNLVVDLSTQIFCHNDYPETITDYVTLQRGSAYGGVLSSFSGTVKYNGSSYPFPTTSETPRVVYNSRTDKPWPVALYLTPVSSAGGVAIKAGSLIAVLILRQTNNYNSDDFQFVWNIYANNDVVPPTGGCDVSARDVTVTLPDYPGSVPIPLTVYCAKSQNLGYYLSGTTADAGNSIFTNTASFSPAQGVGVQLTRNGTIIPANNTVSLGAVGTSAVSLGLTANYARTGGQVTAGNVQSIIGVTFVYQ
Adhesion of RBCs to bacterial carpet under low shear [1]: dramatically stronger adhesion under low shear than did the FimH-f18 parent
RBC agglutination under static conditions (in words) [2]: significantly better than the corresponding wild-types

B3: FimH-j96-V156P: FimH-j96 with the V156P point mutation in the linker chain (protein)
chain: FACKTANGTAIPIGGGSANVYVNLAPAVNVGQNLVVDLSTQIFCHNDYPETITDYVTLQRGSAYGGVLSSFSGTVKYNGSSYPFPTTSETPRVVYNSRTDKPWPVALYLTPVSSAGGVAIKAGSLIAVLILRQTNNYNSDDFQFVWNIYANNDVVPPTGGCDVSARDVTVTLPDYPGSVPIPLTVYCAKSQNLGYYLSGTTADAGNSIFTNTASFSPAQGVGVQLTRNGTIIPANNTVSLGAVGTSAVSLGLTANYARTGGQVTAGNVQSIIGVTFVYQ
RBC agglutination under static conditions (in words) [2]: significantly better than the corresponding wild-types

B4: V154P: point mutation V154P engineered into the FimH-j96 and FimH-f18 variants (protein)
chain: FACKTANGTAIPIGGGSANVYVNLAPAVNVGQNLVVDLSTQIFCHNDYPETITDYVTLQRGSAYGGVLSSFSGTVKYNGSSYPFPTTSETPRVVYNSRTDKPWPVALYLTPVSSAGGVAIKAGSLIAVLILRQTNNYNSDDFQFVWNIYANNDPVVPTGGCDVSARDVTVTLPDYPGSVPIPLTVYCAKSQNLGYYLSGTTADAGNSIFTNTASFSPAQGVGVQLTRNGTIIPANNTVSLGAVGTSAVSLGLTANYARTGGQVTAGNVQSIIGVTFVYQ
Trimannose binding function of point mutants (in words) [3]: entirely conserved

B5: V155P: point mutation V155P engineered into the FimH-j96 and FimH-f18 variants (protein)
chain: FACKTANGTAIPIGGGSANVYVNLAPAVNVGQNLVVDLSTQIFCHNDYPETITDYVTLQRGSAYGGVLSSFSGTVKYNGSSYPFPTTSETPRVVYNSRTDKPWPVALYLTPVSSAGGVAIKAGSLIAVLILRQTNNYNSDDFQFVWNIYANNDVPVPTGGCDVSARDVTVTLPDYPGSVPIPLTVYCAKSQNLGYYLSGTTADAGNSIFTNTASFSPAQGVGVQLTRNGTIIPANNTVSLGAVGTSAVSLGLTANYARTGGQVTAGNVQSIIGVTFVYQ
Trimannose binding function of point mutants (in words) [3]: entirely conserved

B6: V156P: point mutation V156P engineered into the FimH-j96 and FimH-f18 variants (protein)
chain: FACKTANGTAIPIGGGSANVYVNLAPAVNVGQNLVVDLSTQIFCHNDYPETITDYVTLQRGSAYGGVLSSFSGTVKYNGSSYPFPTTSETPRVVYNSRTDKPWPVALYLTPVSSAGGVAIKAGSLIAVLILRQTNNYNSDDFQFVWNIYANNDVVPPTGGCDVSARDVTVTLPDYPGSVPIPLTVYCAKSQNLGYYLSGTTADAGNSIFTNTASFSPAQGVGVQLTRNGTIIPANNTVSLGAVGTSAVSLGLTANYARTGGQVTAGNVQSIIGVTFVYQ
Trimannose binding function of point mutants (in words) [3]: entirely conserved
